Results on 1 substance are retold here after patent US20210169929A1.

In this test the target is CD19 CAR (4G7-CAR) encoded by Construct 1, expressed on transfected HEK293 cells. The test can be described thus: flow cytometry, HEK293 cells transfected with Construct 1, biotinylated CD19 then streptavidin-PE; unstained 17.4, streptavidin-PE only 18.5.
Chain of CD19 CAR (4G7-CAR) encoded by Construct 1, expressed on transfected HEK293 cells (chain, as listed by the source limits assumed): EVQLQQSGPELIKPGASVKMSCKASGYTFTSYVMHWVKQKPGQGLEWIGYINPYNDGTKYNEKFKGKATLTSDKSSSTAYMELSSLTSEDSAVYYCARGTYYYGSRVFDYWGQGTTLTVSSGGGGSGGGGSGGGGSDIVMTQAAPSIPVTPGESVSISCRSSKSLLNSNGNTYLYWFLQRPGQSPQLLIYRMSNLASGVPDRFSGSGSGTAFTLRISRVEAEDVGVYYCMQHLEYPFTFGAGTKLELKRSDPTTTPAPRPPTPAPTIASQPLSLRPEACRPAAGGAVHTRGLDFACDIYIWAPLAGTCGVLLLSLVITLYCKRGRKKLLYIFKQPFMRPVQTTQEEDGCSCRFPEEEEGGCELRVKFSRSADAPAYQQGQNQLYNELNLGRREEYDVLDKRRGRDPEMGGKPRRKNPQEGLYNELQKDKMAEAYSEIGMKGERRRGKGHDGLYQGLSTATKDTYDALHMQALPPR

“biotinylated CD19 (Acro CD9-H8259, Acro Biosystems) (from UniProt P15391 20-291)” displayed a PE (CD19) flow cytometry value of 33.3.
